Consider seven molecules from article PMC2757176 (The Journal of biological chemistry, 2009).

T1: PLC-γ1 SH2 N+C (aa 545 to 749) (human, UniProt P19174 545-749)
T1 sequence (looked up): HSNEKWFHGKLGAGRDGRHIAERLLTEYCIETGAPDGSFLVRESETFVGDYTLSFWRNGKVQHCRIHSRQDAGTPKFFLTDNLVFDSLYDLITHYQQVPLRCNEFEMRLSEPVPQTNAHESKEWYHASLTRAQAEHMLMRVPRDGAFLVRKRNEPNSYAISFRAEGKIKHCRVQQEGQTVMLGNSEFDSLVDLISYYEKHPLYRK

B1: LCK-SH3-SH2 (aa 58 to 230) (domain or fragment, human, UniProt P06239 58-230, looked up)
chain: ASPLQDNLVIALHSYEPSHDGDLGFEKGEQLRILEQSGEWWKAQSLTTGQEGFIPFNFVAKANSLEPEPWFFKNLSRKDAERQLLAPGNTHGSFLIRESESTAGSFSLSVRDFDQNQGEVVKHYKIRNLDNGGFYISPRITFPGLHELVRHYTNASDGLCTRLSRPCQTQKPQ
B2: EAT-2 127 peptide, biotinylated, phosphorylated (peptide)
peptide: Biotin-NSNSD[pY]VDVLP
B3: FYN-SH3-SH2 (aa 82 to 248) (domain or fragment)
chain: not shown

Common to all, as to experiment: SPR
Assay [1] addresses T1, PLC-γ1 SH2 N+C (aa 545 to 749).
Assay [2] deals with B3.
For assay [3], the target named is B1.
In assay [4] the target is B2.

Non-standard residues stand in square brackets, D forms with d. No end group written: not given here. *: point of attachment. Biotin = O=C1N[C@H]2[C@H](CS[C@H]2CCCCC(=O)*)N1; pY = N[C@@H](Cc1ccc(OP(=O)(O)O)cc1)C(=O)O Bounds are passed on as bounds.

Consider Biotin-HNPG[pY]LVVLP [LAT 132 peptide, biotinylated, phosphorylated], for which the Kd in assay [1] was ~0.02 µM.
Turning to Biotin-HPPPPPGHRSQAPSHRPPPPGHRVQ [CD2-281-305 peptide, biotinylated], the Kd in assay [2] was ~4 µM; in assay [3] it was > 1000 µM.
B1: the “fold weaker than FYN binding to human EAT-2” value in assay [4] amounted to 10 fold.
Take Biotin-QKGPPLPRPRVQPKPPHG [CD2-322 peptide, biotinylated]: the Kd in assay [2] is ~4 µM; in assay [3] it was > 1000 µM.
For B2, the Kd in assay [1] was ~0.04 µM.
On to B3, for which the “fold weaker than FYN binding to the CD244 ITSM” value in assay [4] was ~5 fold.
On to Biotin-EFLTI[pY]EDVKD [CD244 ITSM 1 peptide, biotinylated, phosphorylated], for which the figures for the Kd in assay [2] and in assay [3] were ~0.2 µM and ~2 µM, respectively.
